No end group written: not given here.
What was measured:
Format in all cases: cell-based
human α7 nAChR = target: T1, human α7 nAChR (Homo sapiens, UniProt P36544); details: 3 μM
T1 construct: expressed in transfected cells; host or cells: Xenopus laevis oocytes

[1] = test system: HVA calcium channels in rat DRG neurons; details: for rat HVA Ca^2+ channel I/Icontrol ± SEM (n): 1 μM
human α9α10 nAChR = target: T2, human α9α10 nAChR (Homo sapiens, UniProt Q9GZZ6+Q9UGM1); details: 3 μM
T2 construct: expressed in transfected cells; host or cells: Xenopus laevis oocytes
T2 sequence (Q9UGM1 26-479 limits assumed): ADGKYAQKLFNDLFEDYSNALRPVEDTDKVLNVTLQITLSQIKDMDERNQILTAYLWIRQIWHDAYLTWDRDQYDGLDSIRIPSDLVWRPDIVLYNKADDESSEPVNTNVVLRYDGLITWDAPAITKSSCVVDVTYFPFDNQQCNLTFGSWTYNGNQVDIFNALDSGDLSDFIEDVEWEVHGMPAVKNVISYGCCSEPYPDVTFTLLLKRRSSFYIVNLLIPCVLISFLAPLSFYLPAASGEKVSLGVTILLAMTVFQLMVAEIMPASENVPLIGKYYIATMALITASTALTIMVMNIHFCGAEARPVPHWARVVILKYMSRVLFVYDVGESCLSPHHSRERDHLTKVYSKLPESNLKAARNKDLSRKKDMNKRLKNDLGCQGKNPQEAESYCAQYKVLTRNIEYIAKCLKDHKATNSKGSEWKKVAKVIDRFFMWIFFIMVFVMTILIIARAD
T2 sequence (Q9GZZ6 25-450): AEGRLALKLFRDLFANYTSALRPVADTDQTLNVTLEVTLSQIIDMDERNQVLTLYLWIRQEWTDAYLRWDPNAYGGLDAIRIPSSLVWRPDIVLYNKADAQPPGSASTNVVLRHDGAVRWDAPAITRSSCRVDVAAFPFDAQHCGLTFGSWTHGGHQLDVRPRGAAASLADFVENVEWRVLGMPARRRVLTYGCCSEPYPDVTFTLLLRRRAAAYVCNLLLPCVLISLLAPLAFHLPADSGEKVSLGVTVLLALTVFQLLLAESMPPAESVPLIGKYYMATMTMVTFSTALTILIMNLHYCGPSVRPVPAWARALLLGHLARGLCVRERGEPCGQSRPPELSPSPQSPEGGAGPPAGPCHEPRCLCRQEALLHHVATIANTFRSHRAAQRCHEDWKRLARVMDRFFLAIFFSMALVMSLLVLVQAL

Row | Substance | human α7 nAChR I/Icontrol ± SEM (n) (human α7 nAChR) | inhibition of HVA calcium currents by globular, ribbon and beads isomers [1] | rat HVA Ca^2+ channel I/Icontrol ± SEM (n) [1] | human α9α10 nAChR I/Icontrol ± SEM (n) (human α9α10 nAChR)
1 | Pu1.2: native full length Pu1.2, SEQ ID No. 41: G G C C S Y P P C I A N N P L C (GGCCSYPPCIANNPLC; not fully specified; ends and bridges not checked) | 0.98 ± 0.03 (6) | found to inhibit HVA calcium currents | 0.73 ± 0.02 (12) | 1.01 ± 0.04 (4)
2 | Pn1.2: native full length Pn1.2, SEQ ID No. 42: G C C S H P P C F L N N P D Y C (GCCSHPPCFLNNPDYC; not fully specified; ends and bridges not checked) | 0.006 ± 0.005 (5) | found to inhibit HVA calcium currents | 0.78 ± 0.03 (11) | 0.012 ± 0.001 (4)

Source: US11136351B2 (priority 2016, dated 2021)
